Publication PMC6443839

Biological target: amyloid-β protein (Aβ) produced from human APP770 bearing the Swedish mutation (APPswe) in rat hippocampal neurons (human)
Assay: SDS-PAGE with western blot

amyloid-β protein (Aβ) produced from human APP770 bearing the Swedish mutation (APPswe) in rat hippocampal neurons (peptide)
stoichiometry N: 3
